Sequences and labels used below:
B1: human RPB6 (residues 1–24), NTT peptide [human] / human TFIIH p62 PH domain (PH-D) (residues 1–108) [human] (parent complex)
chain 1: MSDNEDNFDGDDFDDVEEDEGLDD
chain 2: MATSSEEVLLIVKKVRQKKQDGALYLMAERIAWAPEGKDRFTISHMYADIKCQKISPEGKAKIQLQLVLHAGDTTNFHFSNESTAVKERDAVKDLLQQLLPKFKRKAN

This note sets out measurements from PMC8754651 (2021).

What is called Kd is the constant that tells how readily two partners part at equilibrium.

The assay covers variants of B1. As to the kind of experiment: ITC. (In general: In ITC the heat of successive injections is recorded.)
In the case of chain 1 MSDNEDNFDGDDADDAEEDEGLDD [chain 1 F13A, chain 1 V16A], the equilibrium dissociation constant (Kd) came to 7.35 µM.
Turning to chain 1 MSDNEDNFDGDDFDDAEEDEGLDD [chain 1 V16A], the Kd amounted to 7.14 µM.
On to chain 1 MADNEDNFDGDDFDDVEEDEGLDD [chain 1 S2A], for which the Kd worked out at 3.65 µM.
In the case of chain 1 MSDNEDNADGDDFDDVEEDEGLDD [chain 1 F8A], the Kd worked out at 2.85 µM.
